This assay addresses T1, CRF2-4/IL-22RA heterodimeric receptor on BaF3/CRF2-4/IL-22RA cells (human, UniProt Q08334 20-325, limits assumed).
T1 sequence 1: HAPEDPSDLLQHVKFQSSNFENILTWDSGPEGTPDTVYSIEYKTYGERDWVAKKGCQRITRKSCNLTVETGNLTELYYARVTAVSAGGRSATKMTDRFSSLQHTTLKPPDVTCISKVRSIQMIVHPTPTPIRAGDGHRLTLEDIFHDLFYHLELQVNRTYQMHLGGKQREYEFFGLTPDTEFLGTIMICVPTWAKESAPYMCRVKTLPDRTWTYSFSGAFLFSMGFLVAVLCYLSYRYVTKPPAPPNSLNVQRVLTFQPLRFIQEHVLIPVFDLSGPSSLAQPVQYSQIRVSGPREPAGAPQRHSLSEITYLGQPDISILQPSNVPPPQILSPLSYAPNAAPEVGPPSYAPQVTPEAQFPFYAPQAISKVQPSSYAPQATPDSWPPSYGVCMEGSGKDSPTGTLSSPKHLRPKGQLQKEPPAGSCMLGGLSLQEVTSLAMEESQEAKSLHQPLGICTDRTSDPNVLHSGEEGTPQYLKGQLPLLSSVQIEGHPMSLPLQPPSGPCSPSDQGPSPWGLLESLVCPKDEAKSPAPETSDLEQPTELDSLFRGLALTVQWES
T1 sequence 2: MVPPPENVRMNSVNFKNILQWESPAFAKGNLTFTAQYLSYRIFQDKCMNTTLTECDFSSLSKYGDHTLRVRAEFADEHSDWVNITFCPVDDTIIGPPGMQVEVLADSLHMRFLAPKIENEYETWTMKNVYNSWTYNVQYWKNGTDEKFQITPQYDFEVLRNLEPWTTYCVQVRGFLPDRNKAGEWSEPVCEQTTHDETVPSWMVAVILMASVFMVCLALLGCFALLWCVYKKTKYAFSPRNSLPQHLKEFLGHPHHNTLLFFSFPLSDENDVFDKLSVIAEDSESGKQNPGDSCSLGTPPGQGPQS
The experiment in a line: cell-based or functional assay.

“And” between values parts separate entries of the source, which are not always exact repeats. Identical values can stand only once.

B1: IL-22-CEE (human IL-22 polypeptide with C-terminal GluGlu (EE) tag, purified from BHK 570 cells) (ligand)
chain: LLLALLVQGGAAAPISSHCRLDKSNFQQPYITNRTFMLAKEASLADNNTDVRLIGEKLFHGVSMSERCYLMKQVLNFTLEEVLFPQSDRFQPYMQEVVPFLARLSNRLSTCHIEGDDLHIQRNVQKLKDTVKKLGESGEIKAIGELEYMPME
As for B1, the “proliferation of BaF3/CRF2-4/IL-22RA cells (Alamar Blue)” value was ~15 fold over background and 2 fold induction.
